The values that follow come from the Immune Epitope Database (IEDB).

The target of test [1] is HLA-A*30:01. As to the kind of experiment: IEDB peptide-MHC binding, purified MHC/competitive/radioactivity; filed as Kd, often an IC50 or EC50 that approximates it; ≥ and ≤ were set here for values at or beyond the usual limits of such assays. The conditions noted are these: source organism: Vaccinia virus WR.
Test [2] has as its target HLA-A*69:01. Briefly: IEDB peptide-MHC binding, purified MHC/direct/fluorescence; filed as Kd, often an IC50 or EC50 that approximates it; ≥ and ≤ were set here for values at or beyond the usual limits of such assays. Conditions: source organism: Vibrio vulnificus.
The target in test [3] is HLA-A*02:01. The description is as above. The conditions noted are these: source organism: Vibrio vulnificus.
In test [4] the target is HLA-B*27:05. Described as above. The conditions noted are these: source organism: Mycobacterium avium 104.
Test [5] concerns the target HLA-A*26:01. Briefly: IEDB peptide-MHC binding, purified MHC/competitive/radioactivity; filed as Kd, often an IC50 or EC50 that approximates it; ≥ and ≤ were set here for values at or beyond the usual limits of such assays. The conditions noted are these: source organism: Dengue virus 3 Martinique/1243/1999.
For test [6], the target named is HLA-A*02:03. Described as above.
Test [7] concerns the target HLA-A*02:02. The description is as above.
The target in test [8] is HLA-A*02:06. The test is described as above.
The target in test [9] is HLA-A*30:02. Described as above.
The target in test [10] is HLA-B*58:01. Briefly: IEDB peptide-MHC binding, purified MHC/direct/fluorescence; filed as Kd, often an IC50 or EC50 that approximates it; ≥ and ≤ were set here for values at or beyond the usual limits of such assays. Conditions: source organism: Homo sapiens.
Test [11] has as its target HLA-A*11:01. The description is as above. Conditions: source organism: Homo sapiens.
In test [12] the target is HLA-B*15:01. Described as above.
Test [13] addresses HLA-A*01:01. The description is as above.
Test [14] has as its target HLA-A*03:01. Described as above.
[15] abbreviates: source organism: Vaccinia virus WR.
[16] abbreviates: source organism: SARS coronavirus Tor2.
[17] abbreviates: source organism: Lassa virus Josiah.

By Kd is commonly meant the equilibrium constant for the complex coming apart. With RYRFAFLYL, the dissociation constant Kd in [1] was 0.169 nM.

In the case of SVRLLNYFK, in [1], the Kd came out at 0.238 nM.

As for KTSCSKNEA, the Kd in test [1] was found to be 72.2 nM.

Regarding RFKKESSLA, the Kd in [1] amounted to 0.305 nM.

On to VQLLGRRFV, for which the Kd in test [2] and in test [3] was at least 20000 nM in each case.

As for RRLVKVLNN, the Kd in test [4] is 4370 nM.

As to ETENILTVL, the Kd in [5] was determined as 2940 nM.

Regarding KTISMLIEV, the Kd in test [1] is 580 nM.

Turning to IAGIILLIL, the Kd in test [6] (setting [15]) was at least 52900 nM; in test [7] (setting [15]) it was 4190 nM; in [8] (setting [15]), at least 77100 nM.

On to VVECLTVPNI, for which the Kd is 19600 nM in test [6] (setting [15]), 8420 nM in test [7] (setting [15]) and 301 nM in [8] (setting [15]).

For the sequence TIDNIVTSLA, the Kd in test [6] (setting [15]) was at least 70400 nM; in [7] (setting [15]) it was at least 70000 nM; in [8] (setting [15]), at least 69800 nM.

For HWFSRENSY, the Kd in test [9] (source organism: Dengue virus 3 Martinique/1243/1999) turned out to be 246 nM.

With MCFHQHLMY, the Kd came out at 937 nM in test [10]; 8410 nM in test [11]; 1440 nM in test [12] (source organism: Homo sapiens); 3330 nM in [13] (source organism: Homo sapiens); 13600 nM in test [14] (source organism: Homo sapiens).

In the case of SLCSCICTV, the Kd in test [6] (setting [16]) worked out at 4.19 nM; in test [7] (setting [16]), 3.96 nM; in [8] (setting [16]), 5.83 nM.

With GLCNYGGILI, the values for the Kd in test [6] (setting [15]), in test [7] (setting [15]) and in [8] (setting [15]) were 3210 nM, 152 nM and 5030 nM, respectively.

With IMRVMANNV, the Kd in [6] (setting [15]) was 1260 nM; in [7] (setting [15]), 396 nM; in test [8] (setting [15]), 2500 nM.

On to LVDKEDTDIV, for which the Kd in [6] (setting [15]) is 1680 nM; in test [7] (setting [15]) it was 3700 nM; in test [8] (setting [15]), at least 27100 nM.

Sequence IQGTLAKAY yielded a Kd in test [12] (source organism: Rickettsia prowazekii) of 215 nM.

VMCGGSLYV: the values for the Kd in test [6] (setting [16]), in [7] (setting [16]) and in test [8] (setting [16]) were 7.5 nM, 0.606 nM and 6.81 nM, respectively.

In the case of YTGGYDVSL, the values for the Kd in test [6] (setting [15]), in test [7] (setting [15]) and in test [8] (setting [15]) were 6050 nM, 1990 nM and at least 20300 nM, respectively.

For PLTLLIKTL, the Kd in test [6] (setting [15]) was found to be 6140 nM; in test [7] (setting [15]), 5270 nM; in test [8] (setting [15]), 8100 nM.

Turning to NLTQLFKYV, the Kd was found to be 238 nM in test [6] (setting [15]), 320 nM in test [7] (setting [15]) and 657 nM in test [8] (setting [15]).

As for QVDQGIEYY, the Kd in test [13] (source organism: Mycobacterium tuberculosis) was 119 nM.

ISEKLRSGY showed a Kd in test [13] (source organism: Influenza A virus (A/Kinmen/645/04(H3N2))) of 467 nM.

VVFLHVTYV: the Kd in test [6] (setting [16]) turned out to be 0.281 nM; in test [7] (setting [16]) it was 7.75 nM; in test [8] (setting [16]), 3.86 nM.

Take VHSWEDIPY: the dissociation constant Kd in test [9] (source organism: Dengue virus 4 Philippines/H241/1956) was 3360 nM.

On to RSCTLPPLRY, for which the dissociation constant Kd in [9] (source organism: Dengue virus 2 Jamaica/1409/1983) is 15.5 nM.

KQNHMQILK gave a Kd in test [14] (source organism: Francisella tularensis subsp. holarctica LVS) of 156 nM.

Consider CNYSKYWYL, for which the figures for the Kd in test [6] (setting [17]), in test [7] (setting [17]) and in test [8] (setting [17]) were 7130 nM, 3660 nM and 2700 nM, respectively.

With NIKPVIVPDI, the Kd in test [6] (setting [15]) was 745 nM; in [7] (setting [15]), 10300 nM; in test [8] (setting [15]), 945 nM.

In test [14] (source organism: Giardia lamblia ATCC 50803), HLYYFITYY showed a Kd of 150 nM.

Regarding MYKLNKPTK, the Kd in test [13] (source organism: Camelpox virus M-96) is at least 20000 nM.

As for ITTLLNETA, the Kd is 936 nM in test [6] (setting [15]), 414 nM in [7] (setting [15]) and 596 nM in test [8] (setting [15]).

Turning to RVKQWVMDTL, the Kd in test [6] (setting [15]) was 689 nM; in test [7] (setting [15]), 3480 nM; in test [8] (setting [15]), at least 27800 nM.

LIISTDQDT: the Kd in test [6] (setting [15]) was at least 78100 nM; in test [7] (setting [15]), at least 77800 nM; in test [8] (setting [15]), at least 77100 nM.
